Patent US20210253697A1 (Novo Nordisk, published 2021)

Biological target: T1, cynomolgus TREM-1 (cTREM-1 protein, SPR analyte of Examples 9 and 11) (cynomolgus monkey)
T1 construct: Soluble analyte; also called cyno TREM1
T1 chain: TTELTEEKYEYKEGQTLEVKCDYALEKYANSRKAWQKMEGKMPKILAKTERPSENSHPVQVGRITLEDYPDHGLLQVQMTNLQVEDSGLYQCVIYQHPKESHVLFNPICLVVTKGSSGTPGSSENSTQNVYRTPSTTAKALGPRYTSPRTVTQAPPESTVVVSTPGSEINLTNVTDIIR
Experiment: SPR, mAb captured, cTREM-1 analyte
Description: Binding studies were performed on a ProteOn Analyzer (BioRad) that measures molecular interactions in real time through surface plasmon resonance. Experiments were run at 25° C. and the samples were stored at 15° C. in the sample compartment. The signal (RU, response units) reported by the ProteOn is directly correlated to the mass on the individual sensor chip surfaces in six parallel flow cells. Anti-human Fc monoclonal or anti-murine Fc polyclonal antibody from Biacore human or mouse Fc capture kits were immobilized in horizontal direction onto flow cells of a GLM sensor chip according to the manufacturer's instructions. The final immobilization level of capture antibody was approximately 2600-6000 RU in different experiments. […] The GLM surface was regenerated after each injection cycle of analyte via two 18 s injections of 10 mM Glycine, pH 1.7 and 50 mM NaOH at 100 μl/min. This regeneration step removed the anti-TREM-1 antibody and any bound TREM-1 protein from the immobilized capture antibody surface, and allowed for the subsequent binding of the next interaction sample pair.

B1: mAb 0121 (antibody, V domains shown)
VH: EVQLVESGGGLVQPGGSLKLSCAASGFTFSTYAMHWVRQASGKGLEWVGRIRTKSSNYATYYAASVKGRFTISRDDSKNTAYLQMNSLKTEDTAVYYCVRDMGQRRQFAYWGQGTLVTVSS
VL: DIVMTQSPDSLAVSLGERATINCRASESVDTFDYSFLHWYQQKPGQPPKLLIYRASNLESGVPDRFSGSGSGTDFTLTISSLQAEDVAVYYCQQSNEDPYTFGQGTKLEIK
notes: recombinant; also called 14F113/14F69 hz variant HC T93V; 14F113 hz variant HC T93V
- Kd: 0.94 nM
